The test concerns the target CanA from Pyrodictium abyssi (recombinant full-length CanA) (Pyrodictium abyssi). Put plainly: 1H NMR signal decay during polymerization; 0.97 mM CanA in 50 mM Tris-HCl, 50 mM NaCl, pH 7.5, 10% D2O, 0.4 mM DSS; polymerization started by MgCl2 and CaCl2 to 20 mM each; 298 K; about 42 h; intensity of -0.6 to 0.1 ppm fitted by single or double exponential.

For the substance “CanA from Pyrodictium abyssi (recombinant full-length CanA) (natural protein)”, the critical CanA concentration for polymerization was 2.48 µM.

The values above are taken from paper PMC12326000.
